From the supplement of paper PMC12042874 come the findings set out here.

± gives the uncertainty stated by the source.

The series in a line: amyloid nucleation score (Sup35N fusion, yeast selection) (log enrichment); library NNK3; higher = more nucleation; inactive = no reads after selection. In a few lines: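 Growth for 7 days at 30°C on medium lacking adenine and uracil followed a 24-hour induction with 100 μM copper sulfate of psi-negative yeast expressing peptides of 20 random codons fused to Sup35N. Input and output plasmid inserts were sequenced with Illumina, and sequences with under 100 input reads were excluded. Nucleation score is the DiMSum log enrichment of output over input reads, centred on the mode score of non-aggregating sequences.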
Regarding APRLFINY, the amyloid nucleation score result was “inactive”. For YRGVDLYVGVKLIRTYRVVR the value was “inactive”; for GTDWCTRHMPGIDPCDSVVC, -0.557 ± 1; for ARIYCSWYPLYTFYLIHSH, 0.644 ± 0.2. For NFLSALIYILMAYDRDFVYR the value was “inactive”. GHMWFFVFY had an amyloid nucleation score of 2.52 ± 0.061. The result for GNSNTMSVLRCFLNPFPLVW reads “inactive”; that for CTVPMPDSVNVSAE, “inactive”; that for LPLFRISAPMVMYVLLYVPW, “inactive”. For MPKAGVSTVSLSHRKVLTLP the value was 0.174 ± 1; for ISFSLH, “inactive”; for LSPGTFCRVDSTPVWVNACP, -0.294 ± 0.47. Turning to ACTFITRMYCGWHSS, the amyloid nucleation score entry was “inactive”.

Substance IGCWTSYSWNRSRKFYMQQE had an amyloid nucleation score of 0.799 ± 0.17. The result for QRDVDLMVSIGTPTSNRYET reads “inactive”. For GDMKGSISCIIKKEVINVQC the value was “inactive”; for GWAGGSLNARMSRWF, 0.881 ± 0.17; for NYSRFGNKKFYHP, “inactive”. On to VSLKVIDKNFNFHVMYGCID, for which the amyloid nucleation score entry is “inactive”. For SCSLCWPIHRDFHMCTSSVC, the amyloid nucleation score result was “inactive”. For VVTASYWLLCLSLYFSAS the value was “inactive”; for SVCLSDRSSGS, “inactive”; for RRCPYIRESIYKFSLAKCSF, 0.014 ± 0.31. MSPWSRMF: the amyloid nucleation score entry was “inactive”. The result for WFFMNVLASENKYFVLCCKA reads “inactive”; that for DIFGSGYGYRGLSGRNYINM, “inactive”; that for TWRYWFKLESYNVYWRLLPA, -0.582 ± 1.

Consider GVFMLVSNFASNWAT, for which the amyloid nucleation score entry was “inactive”. The result for RQGPIYPWVLC reads “inactive”. The result for TTGPYLSATEHTVGHLR reads “inactive”; that for NRFINASNS, “inactive”; that for LSTNTERAFTAWNVIGELGD, “inactive”. For FTLFMDRVIFASSVDSTEIL the value was “inactive”; for PCRICINCCRRCIILLLF, “inactive”. In the case of ESMSHRGAPGRERVLRSNM, the amyloid nucleation score result is “inactive”. Consider LVVLLRFCGRAPGIGQSMGD, for which the amyloid nucleation score entry is “inactive”. The result for MMVVNRGDHQDGGEAYEVV reads “inactive”; that for DIRSGTLC, “inactive”. Regarding FASSDC, the amyloid nucleation score result is “inactive”. Substance VCTYNLAFGYFGVVWLTFVV gave an amyloid nucleation score of -0.519 ± 0.82.

In the case of GTSMSRPDIVTDKVMPFLRR, the amyloid nucleation score entry is “inactive”. Regarding YVCGQSG, the amyloid nucleation score entry is “inactive”. The result for SDYGSFLEFH reads -0.27 ± 0.79; that for ELFSVNKCDLALNTCLTVPG, 2.6 ± 0.061; that for PVQPTEARNR, “inactive”. As for RYRLKM, the amyloid nucleation score result is “inactive”. The result for KYYTSRNRWRYMV reads -0.291 ± 0.68. Turning to FCIEPR, the amyloid nucleation score result was “inactive”. For EADPYIPKSVFGVGFNGHVV the value was “inactive”; for SPKFVRWGRQVVSSVRA, “inactive”; for HRTLVMGP, “inactive”.

On to MVNLSLCLNVVAEGLNFDRF, for which the amyloid nucleation score is 1.66 ± 0.091. For DLTTFQDMSTCTLWVTSGYT the value was “inactive”. The result for LSCSQKV reads “inactive”; that for TSYVEVGFLVSKYQTWWAVN, “inactive”; that for STIYKPVYFRVVTGFLMW, “inactive”. In the case of AAIYYLSRAECNFSRYKNYL, the amyloid nucleation score entry was “inactive”. For FISGVYMKCIGCSS the value was “inactive”; for ISLGRCNNDHWRILVGTWSA, “inactive”; for APRGVVLPWTLDIASSLLTP, “inactive”. The result for TTVMLTKLYMFEGPNRFTAL reads 0.961 ± 0.084; that for YELPDWSRYKQFVLLG, “inactive”; that for HALSRDVVKMLCSFNNYLTW, “inactive”. For YMAAVQSTKRNFMHCNKVGS, the amyloid nucleation score result is “inactive”. The result for QRMTLNLDRCPMSYWGSTIP reads “inactive”. Consider CCNFWRMPMTLCRNSCSSST, for which the amyloid nucleation score was 0.718 ± 0.17. For NHFFALSLVII the value was “inactive”; for SKHSVAGQTKC, “inactive”. The result for FLFFTEAGYM reads “inactive”; that for CALYFVWAWWERRRKMYYA, “inactive”; that for NCTVYLGTFCCSQGFAGLPP, 3.07 ± 0.053.

As for LAINIFWLEDRCSPIGCNAG, the amyloid nucleation score result is “inactive”. For the substance MSMDHLMTYLRLATQVALRS, the amyloid nucleation score entry is “inactive”. As to ICGCPTYCNEANLLLERN, the amyloid nucleation score result was “inactive”.

Turning to YPKRMCDRHS, the amyloid nucleation score entry is “inactive”. The result for IEFFEYVCVMFFCC reads “inactive”; that for MFLKMRWSNAVRMARKCNLE, “inactive”; that for QKAYKYSDI, “inactive”.

Consider RMESTYGYVLDVSIEVLWGI, for which the amyloid nucleation score entry is “inactive”. In the case of CSFRIMGDQMIGKTCCRFGH, the amyloid nucleation score entry is “inactive”. The result for LLRGVRKE reads “inactive”; that for VCGILAISGLLT, “inactive”. The result for KICRIYAMGVLLSDTVSTMS reads “inactive”; that for FENSLFYTKVMDPCSFVWYW, “inactive”; that for SVSVVKSSEILSSMGPCGGT, “inactive”.

Turning to ACTIMWSSLKSIT, the amyloid nucleation score entry was “inactive”. The result for SLSYSSLCSALMWVHVKSYD reads “inactive”. For EYESMI the value was “inactive”; for EAVKWPHMILPHCTHMWIYW, “inactive”.

As for CSEQEACISK, the amyloid nucleation score entry was “inactive”.

As to TKNDRN, the amyloid nucleation score result is “inactive”. For LTYTHLCEPSEFR the value was “inactive”; for GVLCMWHLCFDVCDGKIIGG, 1.74 ± 0.078; for MPVSYAG, “inactive”. The result for YAFLELFNFVLNLDLGVGYL reads “inactive”; that for LYIWSIGLLEQLGNGMQASR, “inactive”; that for TCSLFFSYPYIGRQHGCGRY, 0.444 ± 0.46. Take NRSRNMESVRDSLLSVVNRE: the amyloid nucleation score entry was “inactive”. For PVLQIIRLADRLWLDIG the value was “inactive”; for NSRSKNWGLVFPSNRGLVS, “inactive”; for DQVAYRGKSVYSYKCKTRWG, “inactive”. For the substance VDEIWMGGLFCILYVSEVHK, the amyloid nucleation score result was “inactive”.

Take SFLWKIMISCYMMIVFCCVS: the amyloid nucleation score result is “inactive”. The result for HIFFFSPKSVVHVIASRGCL reads 1.59 ± 0.081; that for YGFFKAARRMRIS, “inactive”; that for VLTRTTRLTHSTTSICLLVL, “inactive”.

Consider FAILNFGMSSIIFVCLTCAN, for which the amyloid nucleation score entry is “inactive”. The result for RQGCKVCRWLRSKSLLLRRM reads “inactive”; that for WCFMQQFVFTLGRKFRIWRI, “inactive”. For IELRM the value was “inactive”; for AGDGHLSLS, “inactive”; for AMNNAGSGKQEYNRYGEIIN, “inactive”. For the substance KGNRFPRVLGIMFAFLFGSE, the amyloid nucleation score result is “inactive”. The result for KIYGIPYCTRVGCNLWPGAG reads 0.294 ± 0.39. Take RQGRYEHQRGPFSLVSQVG: the amyloid nucleation score was -0.083 ± 1.1.

Take TRMWYGLLAENGCAYLGCNW: the amyloid nucleation score result was “inactive”. For CLPPKS, the amyloid nucleation score result was “inactive”. In the case of IMSKVASDALIPVTSSMSTG, the amyloid nucleation score entry is “inactive”.

RGNIWIHKK: the amyloid nucleation score was determined as 0.404 ± 0.15. FANFSILS: the amyloid nucleation score result is “inactive”.

On to VSLKYSTKKPWLKTDHPCWI, for which the amyloid nucleation score result is “inactive”. For VLSHSHGSWSRESYKLLRLD the value was “inactive”.

The substance EGIGDVCCKTPEYRSFGWMR had an amyloid nucleation score of -1.13 ± 2.4. For FWLTNISFDLKFKINSSEFT the value was 0.205 ± 0.33; for VLKMAACNPGTNSLSTPGCG, “inactive”. With IFILRLDIIALLNVTGIRIW, the amyloid nucleation score entry was “inactive”. TVLLYLNDMVNNNFGFEGSF displayed an amyloid nucleation score of 0.647 ± 0.34. As to HDLAETCGSSPI, the amyloid nucleation score result is “inactive”. HRDNLWRWNFFCPNY yielded an amyloid nucleation score of 0.993 ± 0.12.

Take VRYVSFAEFSWGLRFSVSRR: the amyloid nucleation score entry was “inactive”. With DYMRFTYRIMNCLSDCYITN, the amyloid nucleation score result was “inactive”.
